Source: paper PMC5716589, “The nucleoid as a scaffold for the assembly of bacterial signaling complexes” (PLoS Genetics, 2017)

T1: FrzCD-(His)6 (Myxococcus xanthus, UniProt P43500 1-417)
T1 sequence: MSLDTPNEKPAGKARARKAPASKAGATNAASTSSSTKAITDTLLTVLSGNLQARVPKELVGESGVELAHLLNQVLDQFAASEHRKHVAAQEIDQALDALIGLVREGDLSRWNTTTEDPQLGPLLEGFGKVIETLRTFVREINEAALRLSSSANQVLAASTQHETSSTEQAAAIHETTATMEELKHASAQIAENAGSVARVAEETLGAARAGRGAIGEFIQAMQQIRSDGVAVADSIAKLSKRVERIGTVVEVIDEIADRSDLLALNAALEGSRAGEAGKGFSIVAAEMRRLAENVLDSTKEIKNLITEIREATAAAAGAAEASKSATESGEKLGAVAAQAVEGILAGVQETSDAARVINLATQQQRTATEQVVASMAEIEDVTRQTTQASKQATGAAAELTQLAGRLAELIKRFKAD


Experiments:
FrzCD-(His)6 = target: T1, FrzCD-(His)6; experiment: EMSA; 300 nM DNA; EMSA Fig 3: 10 mM Tris-HCl pH 8, 60 mM NaCl, 10% glycerol, 4 C, 40 min; EMSA S4 Fig: 50 mM Tris pH 7.4, 50 mM NaCl, 1 mM DTT, 10% glycerol, 25 C, 20 min; BLI: PBS pH 7.5, 0.001% Tween-20, 25 C (6His-FrzCDΔ1-130 used as reference subtraction); details: protein: recombinant; tags: C-terminal 6His; chain copies: 2; blunt
[1] = target: the molecule itself; experiment: SEC-MALS; 100 μl of 2 mg/ml (45 μM) FrzCD injected on a BioRad EnRich650 column in 50 mM Tris, 50 mM NaCl, pH 8.0, 0.4 ml/min; Wyatt Dawn Heleos II, Debye model

Row | Binder | binding result (FrzCD-(His)6) | stoichiometry N [1]
1 | Oligo70 (dsDNA) DNA 1: CTTGCAGTAGAGCTGACCATGATTACGCCATCAGCAGCTCCAGGTCGTACCTCCAGCTACCAATCCCCG DNA 2: CGGGGATTGGTAGCTGGAGGTACGACCTGGAGCTGCTGATGGCGTAATCATGGTCAGCTCTACTGCAAG | binds | 
2 | C-terminal-tagged FrzCD-(His)6 (receptor, Myxococcus xanthus, UniProt P43500 1-417, looked up, FrzCD, cytoplasmic chemoreceptor (MCP) of the Frz chemosensory system of Myxococcus xanthus; the names of the deletion mutants (Δ131–417) imply 417 residues; also called FrzCD-H6; 6His-FrzCD (as called in the results for this experiment); source: E. coli BL21-AI, purified (HisTrap FF, MonoQ ion exchange)) MSLDTPNEKPAGKARARKAPASKAGATNAASTSSSTKAITDTLLTVLSGNLQARVPKELVGESGVELAHLLNQVLDQFAASEHRKHVAAQEIDQALDALIGLVREGDLSRWNTTTEDPQLGPLLEGFGKVIETLRTFVREINEAALRLSSSANQVLAASTQHETSSTEQAAAIHETTATMEELKHASAQIAENAGSVARVAEETLGAARAGRGAIGEFIQAMQQIRSDGVAVADSIAKLSKRVERIGTVVEVIDEIADRSDLLALNAALEGSRAGEAGKGFSIVAAEMRRLAENVLDSTKEIKNLITEIREATAAAAGAAEASKSATESGEKLGAVAAQAVEGILAGVQETSDAARVINLATQQQRTATEQVVASMAEIEDVTRQTTQASKQATGAAAELTQLAGRLAELIKRFKAD |  | 2
